In PMC12114846, “Interleukin-15Rα-Sushi-Fc Fusion Protein Co-Hitchhikes Interleukin-15 and Pheophorbide A for Cancer Photoimmunotherapy” (Pharmaceutics, 2025) one finds Kd data, which are given here for one molecule.

For the test, the target named is IL-15 (Homo sapiens), P40933. The note with it: Fc fusion; remark: other sources report otherwise.
Chain of IL-15 (Homo sapiens), P40933 (P40933 49-162): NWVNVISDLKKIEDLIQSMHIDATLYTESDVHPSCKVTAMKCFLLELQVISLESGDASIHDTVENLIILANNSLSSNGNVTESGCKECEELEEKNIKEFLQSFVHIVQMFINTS

B1: rIL-15Rα-Fc, Q13261 (protein)
chain: ITCPPPMSVEHADIWVKSYSLYSRERYICNSGFKRKAGTSSLTECVLNKATNVAHWTTPSLKCIRDPALVHQRPAPPSTVTTAGVTPQPESLSPSGKEPAASSPSSNNTAATTAAIVPGSQLMPSKSPSTGTTEISSHESSHGTPSQTTAKNWELTASASHQPPGVYPQGHSDTT
Molecule B1 displayed a Kd of 0.115 nM. This counts as sub-nanomolar.
